Results taken from publication PMC6146835.

Test system: HBG-4kb ZF (synthetic 6-zinc-finger DNA-binding domain) (synthetic construct)
Assay: EMSA
Conditions: 10 mM Tris pH 7.5, 50 mM KCl, 5 mM MgCl2, 100 uM ZnCl2, 1 mM DTT, 0.05% Triton X-100, 2.5% glycerol, 100 ng herring sperm DNA per 20 ul, 15 nM Cy5-dsDNA …

Row | Sequence | Kd
1 | GAGAACTTAGTGGGGGAAAAAAAGCAGAGAGTATAT (double strand) [HBG-4kb off-target (2-nt mutant)] | 90 nM
2 | GAGAACTTAGTGGGGGAAAGCAAGCAGAGAGTATAT (double strand) [HBG-4kb on-target] | 29.5 nM
